One assay addresses collagen. Kind of assay: cell adhesion assay.
Another assay has as its target fibrinogen (UniProt P02671). Kind of assay: SPR. Background: In SPR one partner is held on a chip, and binding of the other changes the refractive index at the surface.
The target of the next assay is T1, fibrinogen, P02671.
T1 chain 1: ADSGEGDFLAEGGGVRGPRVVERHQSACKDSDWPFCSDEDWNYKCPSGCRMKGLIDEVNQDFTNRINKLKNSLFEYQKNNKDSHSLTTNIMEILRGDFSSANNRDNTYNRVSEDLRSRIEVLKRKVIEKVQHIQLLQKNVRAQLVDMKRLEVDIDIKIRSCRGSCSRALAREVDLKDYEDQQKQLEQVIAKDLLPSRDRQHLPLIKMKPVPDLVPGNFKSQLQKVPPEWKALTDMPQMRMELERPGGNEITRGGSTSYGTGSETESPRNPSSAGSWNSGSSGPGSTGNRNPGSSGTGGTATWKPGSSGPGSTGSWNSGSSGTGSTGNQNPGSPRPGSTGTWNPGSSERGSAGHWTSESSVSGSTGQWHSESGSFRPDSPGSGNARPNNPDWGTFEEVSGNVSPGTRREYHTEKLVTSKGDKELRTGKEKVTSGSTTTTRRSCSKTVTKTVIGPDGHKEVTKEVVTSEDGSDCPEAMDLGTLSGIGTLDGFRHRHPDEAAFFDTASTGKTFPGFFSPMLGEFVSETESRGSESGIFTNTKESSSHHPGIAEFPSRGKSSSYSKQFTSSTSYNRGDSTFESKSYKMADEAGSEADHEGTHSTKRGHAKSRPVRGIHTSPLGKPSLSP
T1 chain 2: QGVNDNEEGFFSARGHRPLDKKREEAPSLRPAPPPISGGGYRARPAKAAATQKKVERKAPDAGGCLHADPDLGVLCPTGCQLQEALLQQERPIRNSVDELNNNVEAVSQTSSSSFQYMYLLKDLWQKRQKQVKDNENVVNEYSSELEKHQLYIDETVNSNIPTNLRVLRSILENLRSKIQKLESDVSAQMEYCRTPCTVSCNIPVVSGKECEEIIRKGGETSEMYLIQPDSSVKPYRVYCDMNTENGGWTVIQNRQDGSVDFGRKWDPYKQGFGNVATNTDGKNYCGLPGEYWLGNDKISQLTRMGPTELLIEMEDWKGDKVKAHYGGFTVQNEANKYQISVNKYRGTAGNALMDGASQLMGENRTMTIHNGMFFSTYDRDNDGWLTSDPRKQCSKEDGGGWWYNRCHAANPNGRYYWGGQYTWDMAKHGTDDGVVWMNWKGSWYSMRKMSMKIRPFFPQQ
T1 chain 3: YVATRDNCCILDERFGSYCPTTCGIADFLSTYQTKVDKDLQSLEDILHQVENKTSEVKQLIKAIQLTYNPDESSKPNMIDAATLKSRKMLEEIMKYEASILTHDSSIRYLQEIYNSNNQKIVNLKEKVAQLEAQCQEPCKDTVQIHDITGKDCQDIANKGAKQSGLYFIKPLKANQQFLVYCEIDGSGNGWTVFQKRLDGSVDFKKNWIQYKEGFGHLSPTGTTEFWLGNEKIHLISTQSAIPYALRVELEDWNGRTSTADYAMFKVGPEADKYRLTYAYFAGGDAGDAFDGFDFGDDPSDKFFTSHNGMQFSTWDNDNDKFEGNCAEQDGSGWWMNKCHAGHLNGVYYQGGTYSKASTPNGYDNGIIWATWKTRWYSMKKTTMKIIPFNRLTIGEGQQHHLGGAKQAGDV
Kind of assay: cell adhesion assay. The following applies: remark: other sources report otherwise.

“human GPVI expressed on RBL-2H3 cells (from UniProt Q9HCN6 21-339) (receptor)” gave a fold increase in cell adhesion relative to mock-transfected cells with collagen of 3 fold.

As a reminder, the Kd is the constant that tells how readily two partners part at equilibrium. A word on the koff: it is the rate constant with which the complex falls apart. Read a high koff as fast dissociation. In general, kon refers to the rate constant with which the complex forms. In the assay with fibrinogen, “recombinant soluble GPVI extracellular domain, monomer (GPVI-ex) (from UniProt Q9HCN6 21-267) (domain or fragment)” returned a Kd of 336 nM, a koff of 0.00394 s⁻¹ and a kon of 11700 M⁻¹ s⁻¹.

B1: human GPVI expressed on RBL-2H3 cells, Q9HCN6 21-339 (receptor)
chain: QSGPLPKPSLQALPSSLVPLEKPVTLRCQGPPGVDLYRLEKLSSSRYQDQAVLFIPAMKRSLAGRYRCSYQNGSLWSLPSDQLELVATGVFAKPSLSAQPGPAVSSGGDVTLQCQTRYGFDQFALYKEGDPAPYKNPERWYRASFPIITVTAAHSGTYRCYSFSSRDPYLWSAPSDPLELVVTGTSVTPSRLPTEPPSPVAEFSEATAELTVSFTNEVFTTETSRSITASPKESDSPAGPARQYYTKGNLVRICLGAVILIILAGFLAEDWHSRRKRLRHRGRAVQRPLPPLPPLPLTRKSNGGQDGGRQDVHSRGLCS
Molecule B1 gave a fold increase in cell adhesion relative to mock-transfected cells with fibrinogen, P02671 of 3 fold.

Values taken from article PMC5927996.
